Results published in US20190023750A1 (SPOGEN BIOTECH, published 2019).

Target: FLS2 receptor (in corn tissue) (corn (taken from the assay tissue; …)
Assay: cell-based or functional assay

QRLSSGKRINSASDDAAGLAIA [Bt.Flg22-Syn03, Mutant D1Q (SEQ ID NO: 573)]
Avg. Activity (%), ROS activity in corn (5828 YX) at 5 nM polypeptide, relative to Bt.4Q7Flg22: 122%
